From article PMC5771957 come the findings set out here.

This experiment deals with T1, CCDC103 (wildtype), N-terminal His10 tagged (H. sapiens), Q8IW40.
T1 chain: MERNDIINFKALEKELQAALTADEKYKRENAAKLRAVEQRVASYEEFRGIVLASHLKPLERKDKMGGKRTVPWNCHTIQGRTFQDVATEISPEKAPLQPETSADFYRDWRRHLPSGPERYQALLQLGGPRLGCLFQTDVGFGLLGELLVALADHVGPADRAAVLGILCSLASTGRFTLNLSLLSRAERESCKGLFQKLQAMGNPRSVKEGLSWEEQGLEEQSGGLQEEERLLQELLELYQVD
The experiment in a line: SEC. Conditions: remark: other sources report otherwise.

B1: CCDC103 (wildtype), N-terminal His10 tagged, Q8IW40 1-242 (natural protein)
chain: T1 chain
Usually stoichiometry N stands for a count of units in the complex or per binding partner. Molecule B1 had a stoichiometry N of 2.
